Source: the supplement of paper PMC9170038

Test system: MS2 coat protein
Assay: apparent KD of MS2 coat protein; designed switch direction (-1 OFF switch, 1 ON switch): -1; higher = weaker reporter binding
Outline: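 Apparent KD, taken as the median over clusters for each design, was obtained by curve-fitting normalised cluster fluorescence. Designed RNA switches had been transcribed on Illumina chips by stalled E. coli RNA polymerase and titrated with SNAP-549-labelled MS2 coat protein, doubling from 0.7 or 1.5 nM to 3 µM.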

[1] = Eterna round: R95, input ligand: microRNA oligo, concentration not stated
[2] = Eterna round: R95, input ligand: FMN 200 uM
[3] = Eterna round: R95, input ligand: none
[4] = input ligand: microRNA oligo, concentration not stated

| Sequence | apparent KD of MS2 coat protein (input ligand: FMN 200 uM) [µM] | apparent KD of MS2 coat protein (input ligand: none) [µM] | apparent KD of MS2 coat protein [1] [µM] | apparent KD of MS2 coat protein [2] [µM] | apparent KD of MS2 coat protein [3] [µM] | apparent KD of MS2 coat protein [4] [µM] |
| --- | --- | --- | --- | --- | --- | --- |
| GCAAGCUUAAUCUGUAUGAACAUGAGGAUCACCCAUGUAUAAGGGAAUUCUUUUGGGUUUUUUAUUGCUCGUCUUAU [JR_STOV1_Sub024] (Eterna round: R97, puzzle: Sensor, turn-off variant 1) | 0.26 | 0.329 | – | – | – | – |
| CAUACACAUGAGGAUCACCCAUGUGAGGAUAUUCGCGCGCGCGCCCGGGCGCGCGCGCGGAGAAGGCACGUGCG [My first try] (Eterna round: R97, puzzle: Exclusion 1) | 0.0767 | 0.0512 | – | – | – | – |
| AAAAUGUGAGGAUAUCCAAUAUAUGACAUGAGGAUCACCCAUGUUUCCACUCGUACCUCCGGAGAAGGCACUAAAA [Ex5 #42] (Eterna round: R97, puzzle: Exclusion 5) | 0.0219 | 0.029 | – | – | – | – |
| AGGCAAUCAGGAUAUACAUGAGGAUCACCCAUGUGUACAAAGCACAUCCGAUCUAGAUGUAGAAGGGAUAUGCA [Usmabesobi] (puzzle: Exclusion 3) | – | – | 0.018 | – | – | – |
| CCUAGCCUAAAAUCACGCAAGCUUUUUGCUUGUCUUAAGACAUGAGGAUCACCCAUGUCCGGGCUGAACUUAUGGAA [Veorxe] (puzzle: Sensor v3, turn-off variant 2) | – | – | 0.0232 | 0.0178 | 0.0166 | – |
| GGGAAGGGAGGAUAUGAGGAGGAGAACAUGAGGAUCACCCAUGUGAGGCCUCAGGAUCAAUCAGAAGGCCCGAUCC [AK-MS2ROC-r4-exclusion5-15.1] (Eterna round: R97, puzzle: Exclusion 5) | 0.0781 | 0.026 | – | – | – | – |
| AGAAAAGCCCAUGACCGCAAGCUUUUUGCUUGUCUUACCACAUGAGGAUCACCCAUGUGACAUGGGCUCCUUAUAAU [Atcein] (puzzle: Sensor v3, turn-off variant 2) | – | – | 0.0102 | 0.0132 | 0.0111 | – |
| CCUAUGUUAGGAUAUCUAGUAAGAGGCCCAUAGGGCCGUGCAGAGAAGGGACAUGAGGAUCACCCAUGUGUCAC [Eternabot (L1) Solution 86] (Eterna round: R97, puzzle: Exclusion 4) | 0.0267 | 0.0346 | – | – | – | – |
| AGAUUACUGCGAGGAUAUACAUGAGGAUCACCCAUGUGGUGGUGUGAGGCAAAGCCUCACACCAUGUAGAAGGCGCAGUAAUCA [Mat - Exclusion NG 2 - Mod of JL - D22] (Eterna round: R96, puzzle: Exclusion NG 2) | 0.15 | 0.0445 | – | – | – | 0.0233 |
| ACUGGUCGAGGAUAUGCAAUCGUGCUUCGGCACGUAAGAUCACAUGAGGAUCACCCAUGUAGAAGGCGACCAGU [E2/3-A2] (Eterna round: R97, puzzle: Exclusion 2) | 0.0817 | 0.0212 | – | – | – | – |
| UGUUGUCGCGCAGGAUAUGUAUGAGGAUCACCCAUUAAUAAAUUUUAACCACGAGGAUCACCCGUGUAGAAGGGCGCGACAACA [pwkr exNG2 2xF5 1xFMN.17] (Eterna round: R96, puzzle: Exclusion NG 2) | 0.0366 | 0.0331 | – | – | – | 0.0197 |
| UGCGGGCUUUUGAGACCUCACAUGAGGAUCACCCAUGUGCUUGUCUUGUGGGUCGGUAGGUCGUUGGCUGACUGACG [Sensor-V1 #97] (Eterna round: R97, puzzle: Sensor, turn-off variant 1) | 0.0155 | 0.0134 | – | – | – | – |
| CACGAAAUGUGAGGAUAUGUGCGACAAAGUUGCACAGAAGGCACAUGAGGAUCACCCAUGUAAGCUAGGUCGAAAGACCUAGCG [Omei Exc(NG)1 Av2] (Eterna round: R96, puzzle: Exclusion NG 1) | 0.269 | 0.0898 | – | – | – | 0.0563 |
| CCAUACUGUAAGCUUCCCAACAUGAGGAUCACCCAUGUGGACCACGGCUUCGGUCAGCUAACCUGCUCGUCGUUGAU [Eternabot (L2) Solution 31] (Eterna round: R97, puzzle: Sensor, turn-off variant 1) | 0.0152 | 0.0169 | – | – | – | – |
| UGAUGGAGGCAGGAUAUUUUGAUGGAUACGAUAAAAGAAGGGCUGACAUGAGGAUCACCCAUGUGGAUAGCUCA [Eternabot (L1) Solution 39] (Eterna round: R97, puzzle: Exclusion 6) | 0.0178 | 0.0144 | – | – | – | – |
| AAUUAGUAUGUGAGGAUAUUGAUGUAAUGAUGGUUUAAGAAGGCACAUGAGGAUCACCCAUGUAGGAAAUCACG [JR_BMEx4_Sub006] (Eterna round: R97, puzzle: Brourd's mod of Exclusion 4) | 0.0378 | 0.029 | – | – | – | – |
| CCCAACGUAACAGGAUAUGCUGUUGAGGCCGGGCGACCUACAUGAGGAUCACCCAUGUCGAAAUGGCAGAAGGGUUGCCGGGUA [Quatin] (Eterna round: R96, puzzle: Exclusion NG 2) | 0.315 | 0.0944 | – | – | – | 0.0619 |

| Sequence | apparent KD of MS2 coat protein (input ligand: FMN 200 uM) [µM] | apparent KD of MS2 coat protein (input ligand: none) [µM] | apparent KD of MS2 coat protein [1] [µM] | apparent KD of MS2 coat protein [2] [µM] | apparent KD of MS2 coat protein [3] [µM] | apparent KD of MS2 coat protein [4] [µM] |
| --- | --- | --- | --- | --- | --- | --- |
| GAUUAUGCGAGCUUUAGGGACAUGAGGAUCACCCAUGUUCGUCUUAUUAGUCUAGGUACACUAACAUACCUAAAUCU [JMF 18] (puzzle: Sensor v3, turn-off variant 1) | – | – | 0.0388 | 0.0213 | 0.0219 | – |
| AAGCGCGAGGCAGGAUAUGCAGAGCGGGUGGCCCGUGCAGAAAAUAACAUGAGGAUCACCCAUGUGCAGAAGGGCCGGGUGACC [Anataredra] (Eterna round: R96, puzzle: Exclusion NG 2) | 0.0605 | 0.0729 | – | – | – | 0.0361 |
| GAAUUCCGAGGAUAUUCGGAACCAGACAUGAGGAUCACCCAUGUGAUGCAGUUUCCGUUCGAAGAAGGUGGAACGC [Eternabot (Original) Solution 28] (Eterna round: R97, puzzle: Exclusion 5) | 0.0225 | 0.0233 | – | – | – | – |
| AAAAAGUCAGGAUAUGUAGCAAAAGGUGAUCAAAAAAAGCUACAGAAGGGACAUGAGGAUCACCCAUGUAAAAA [Ex4: 937] (Eterna round: R96, puzzle: Exclusion 4) | 0.284 | 0.183 | – | – | – | 0.162 |
| UAUAUAUAGUAAGGAUAUGUAUUUAUAUUAUAAACAGAAGGUACUGACAUGAGGAUCACCCAUGUUUUAGUGUGGGCAUGUAGA [JMF's solution 15] (Eterna round: R96, puzzle: Exclusion NG 1) | – | – | – | – | – | 0.0666 |
| UUUUAGAGAGGAUAUAUAAUGUGAAACAUGAGGAUCACCCAUGUAAUAUUAUGGAUGUAAAUAGAAGGCUCAAUUA [Mat - Exclusion 5 - JL mod - D13] (puzzle: Exclusion 5) | – | – | 0.0304 | 0.0285 | 0.0263 | – |
| UCGACUACAGUAGGAUAUGUAGGAUAUGUGGUUGAGGAUCACCCAACCACUUCAACGACAGAAGGACAGAAGGACUGACAUCGU [pwkr exNG2 2xFMN 1xF5.4] (Eterna round: R96, puzzle: Exclusion NG 2) | 0.0215 | 0.0204 | – | – | – | 0.0142 |
| CAGCCCUGAGGAUAUCCAUCCUUGUACAUGAGGAUCACCCAUGUCUCCCUCUGGGCUUUCGGAGAAGGCAGGUAUC [Megrez-6.2] (Eterna round: R97, puzzle: Exclusion 5) | 0.0432 | 0.0445 | – | – | – | – |
| GUACUGACAGGAUAUACAUGAGGAUCACCCAUGUGCCUUAAUGCUACAAAAGUAGCGAGUAGAAGGGUCUGUAC [Omei Ex3 Model Bachelor's Dilema v12] (Eterna round: R97, puzzle: Exclusion 3) | 0.119 | 0.0207 | – | – | – | – |
| UAGUACAGAGGAUAUACAUGAGGAUCACCCAUGUGUUUCAGCUAGGAGACUAGCGAAAGUAGAAGGCUGUACUG [salish99_ex3_r4_010] (Eterna round: R97, puzzle: Exclusion 3) | 0.0262 | 0.0114 | – | – | – | – |
| UAUUAUCAAGCUAGAUCCCACAUGAGGAUCACCCAUGUGCUCGUCUUAAUUCCAGAAUUACUGGGCUCUCGUCUUAU [JR_STOV1_Sub091] (Eterna round: R97, puzzle: Sensor, turn-off variant 1) | 0.0455 | 0.0451 | – | – | – | – |
| GCAGGAUAAGUGAGGAUAUACCUCUGGAUACAGAGGUAGAAGGCACAUGAGGAUCACCCAUGUCUAUAACCUGC [Fiskers BMX 4 - 79] (puzzle: Brourd's mod of Exclusion 4) | – | – | 0.0125 | – | – | – |
| GCACGAAGUGGAGGAUAUCUGGGCGAGGAGCGCAGAGAAGGCCACAUGAGGAUCACCCAUGUGUUCCACGGAUCGCAAACGUGC [exng1 ex2] (Eterna round: R96, puzzle: Exclusion NG 1) | 0.0693 | 0.0209 | – | – | – | 0.0144 |
| AAUAAGCAAGGAUAUACGACGCAGAGCGUCAGUGGGCGAUGACAUGAGGAUCACCCAUGUAGAAGGUGCACAUC [Veisbebi] (puzzle: Exclusion 2) | – | – | 0.0815 | – | – | – |
| UGUACGAUGCGUGCUGACAUGCGUCGUGCAGCAGGUGGAACAUGAGGAUCACCCAUGUCCUCAUUUGCUCGUCUUAU [Mat - Sensor v3 - Turn-off var 2 - D21] (Eterna round: R96, puzzle: Sensor v3, turn-off variant 2) | 0.0351 | 0.0391 | – | – | – | 0.104 |
| GUAAGGCAUCUAGGAUAUAGUAUACGGCGAACAUGAGGAUCACCCAUGUGUCCGAAUGCGGCGAGCUAGAAGGAGAAAUUGCCC [Enuszarima] (Eterna round: R96, puzzle: Exclusion NG 2) | 0.0514 | 0.0334 | – | – | – | 0.0254 |
